Here are results for one substance from PMC4649164.

For the assay, the target named is HIV gp120 (HIV-1). The assay is described as follows: SPR.

Substance “Griffithsin (from UniProt P84801 1-121) (natural protein)” gave a Kd of 0.798 nM, a koff of 0.00175 s⁻¹ and a kon of 2.19e+06 M⁻¹ s⁻¹.
